Laboratory results as given in paper PMC10057847, “Precision engineering of biological function with large-scale measurements and machine learning” (PLOS ONE, 2023).

System: eYFP under the control of the lactose operator (lacO)
Experiment: in vivo dose-response curves of LacI variants to IPTG measured with flow cytometry (eYFP output), fit to the Hill equation
Type: cell-based, E. coli
Conditions: Hill fit of cytometry data; for n: the Hill coefficient: IPTG dose-response; for log_ginf: the base-10 logarithm of G∞ (in MEF): saturating output
Protocol: Dose-response curves were measured with flow cytometry using E. coli MG1655Δlac transformed with variants of the pVER plasmid, described previously. The plasmid contained different variants of the lacI coding DNA sequence (CDS), as described in the text, and an expression cassette with enhanced yellow fluorescent protein (eYFP) under the control of the lactose operator (lacO). The lacI CDS was verified with Sanger sequencing for each variant.
All cultures were grown in a rich M9 media (3 g/L KH2PO4, 6.78 g/L Na2HPO4, 0.5 g/L NaCl, 1 g/L NH4Cl, 0.1 mmol/L CaCl2, 2 mmol/L MgSO4, 4% glycerol, and 20 g/L casamino acids) supplemented with 50 μg/mL kanamycin.
For flow cytometry measurements, E. coli cultures were grown in a laboratory automation system that included an automated liquid handler (Hamilton, STAR), an automated plate sealer (4titude, a4S), an automated de-sealer (Brooks, XPeel), and two multi-mode plate readers (BioTek, Neo2SM).
Cultures were grown in clear polystyrene 96-well plates with 1.1 mL square wells (4titude, 4ti-0255). The culture volume per well was 0.5 mL. Before incubation, each 96-well growth plate was sealed by the automated plate sealer with a gas permeable membrane (4titude, 4ti-0598). Growth plates were incubated in one of the multi-mode plate readers at 37°C with a 1°C gradient applied from the bottom to the top of the incubation chamber to minimize condensation on the inside of the membrane. The plate readers were set for double-orbital shaking at 807 cycles per minute. Optical density at 600 nm (OD600) was measured every 5 minutes during incubation, with continuous shaking applied between measurements (optical density at 700 nm and YFP fluorescence were also measured every 5 minutes). After incubation, the automated de-sealer was used to remove the gas-permeable membrane from each 96-well plate to enable automated passaging of cultures and sample preparation for flow cytometry measurements.
For each measurement, starter cultures were prepared from glycerol freezer stock in 5 mL of rich M9 media in a 14 mL snap-cap culture tubes. Starter cultures were incubated at 37°C with orbital shaking at 300 rpm for between 4 h and 24 h prior to loading the automation system. The automation system then prepared 96-well growth plates, sealed and de-sealed the growth plates, incubated the growth plates, and prepared flow cytometry sample plates. The automated culture protocol consisted of the following steps: […]

B1: pVER-IPTG-002(V136E): LacI variant: V96E V136E T154I S158R V238D M254I V264I (protein, UniProt P03023 1-360, looked up, variant V96E V136E T154I S158R V238D M254I V264I)
Lactose operon repressor: MKPVTLYDVAEYAGVSYQTVSRVVNQASHVSAKTREKVEAAMAELNYIPNRVAQQLAGKQSLLIGVATSSLALHAPSQIVAAIKSRADQLGASVVESMVERSGVEACKAAVHNLLAQRVSGLIINYPLDDQDAIAEEAACTNVPALFLDVSDQIPINRIIFSHEDGTRLGVEHLVALGHQQIALLAGPLSSVSARLRLAGWHKYLTRNQIQPIAEREGDWSAMSGFQQTMQMLNEGIDPTAMLVANDQMALGAIRAITESGLRIGADISVVGYDDTEDSSCYIPPLTTIKQDFRLLGQTSVDRLLQLSQGQAVKGNQLLPVSLVKRKTTLAPNTQTASPRALADSLMQLARQVSRLESGQ
- n: the Hill coefficient: 2.088
- log_g0: the base-10 logarithm of G0 (in MEF) (basal output, posterior mean, value is log10): 4.551 MEF
- log_ginf: the base-10 logarithm of G∞ (in MEF) (posterior mean, value is log10): 1.924 MEF

B2: pVER-IPTG-144: LacI variant: V15I F161I A266T K290R M347I (protein, UniProt P03023 1-360, looked up, variant V15I F161I A266T K290R M347I)
Lactose operon repressor: MKPVTLYDVAEYAGISYQTVSRVVNQASHVSAKTREKVEAAMAELNYIPNRVAQQLAGKQSLLIGVATSSLALHAPSQIVAAIKSRADQLGASVVVSMVERSGVEACKAAVHNLLAQRVSGLIINYPLDDQDAIAVEAACTNVPALFLDVSDQTPINSIIISHEDGTRLGVEHLVALGHQQIALLAGPLSSVSARLRLAGWHKYLTRNQIQPIAEREGDWSAMSGFQQTMQMLNEGIVPTAMLVANDQMALGAMRAITESGLRVGTDISVVGYDDTEDSSCYIPPLTTIRQDFRLLGQTSVDRLLQLSQGQAVKGNQLLPVSLVKRKTTLAPNTQTASPRALADSLIQLARQVSRLESGQ
- n: the Hill coefficient: 1.459

B3: pVER-IPTG-206: LacI variant: V95M A337T (protein, UniProt P03023 1-360, looked up, variant V95M A337T)
Lactose operon repressor: MKPVTLYDVAEYAGVSYQTVSRVVNQASHVSAKTREKVEAAMAELNYIPNRVAQQLAGKQSLLIGVATSSLALHAPSQIVAAIKSRADQLGASVMVSMVERSGVEACKAAVHNLLAQRVSGLIINYPLDDQDAIAVEAACTNVPALFLDVSDQTPINSIIFSHEDGTRLGVEHLVALGHQQIALLAGPLSSVSARLRLAGWHKYLTRNQIQPIAEREGDWSAMSGFQQTMQMLNEGIVPTAMLVANDQMALGAMRAITESGLRVGADISVVGYDDTEDSSCYIPPLTTIKQDFRLLGQTSVDRLLQLSQGQAVKGNQLLPVSLVKRKTTLAPNTQTTSPRALADSLMQLARQVSRLESGQ
- n: the Hill coefficient: 1.594

B4: pVER-IPTG-WT(G200C): LacI variant: G200C (protein, UniProt P03023 1-360, looked up, variant G200C)
Lactose operon repressor: MKPVTLYDVAEYAGVSYQTVSRVVNQASHVSAKTREKVEAAMAELNYIPNRVAQQLAGKQSLLIGVATSSLALHAPSQIVAAIKSRADQLGASVVVSMVERSGVEACKAAVHNLLAQRVSGLIINYPLDDQDAIAVEAACTNVPALFLDVSDQTPINSIIFSHEDGTRLGVEHLVALGHQQIALLAGPLSSVSARLRLACWHKYLTRNQIQPIAEREGDWSAMSGFQQTMQMLNEGIVPTAMLVANDQMALGAMRAITESGLRVGADISVVGYDDTEDSSCYIPPLTTIKQDFRLLGQTSVDRLLQLSQGQAVKGNQLLPVSLVKRKTTLAPNTQTASPRALADSLMQLARQVSRLESGQ
- log_ginf: the base-10 logarithm of G∞ (in MEF) (posterior mean, value is log10): 4.489 MEF

B5: pVER-IPTG-WT(F161V): LacI variant: F161V (protein, UniProt P03023 1-360, looked up, variant F161V)
Lactose operon repressor: MKPVTLYDVAEYAGVSYQTVSRVVNQASHVSAKTREKVEAAMAELNYIPNRVAQQLAGKQSLLIGVATSSLALHAPSQIVAAIKSRADQLGASVVVSMVERSGVEACKAAVHNLLAQRVSGLIINYPLDDQDAIAVEAACTNVPALFLDVSDQTPINSIIVSHEDGTRLGVEHLVALGHQQIALLAGPLSSVSARLRLAGWHKYLTRNQIQPIAEREGDWSAMSGFQQTMQMLNEGIVPTAMLVANDQMALGAMRAITESGLRVGADISVVGYDDTEDSSCYIPPLTTIKQDFRLLGQTSVDRLLQLSQGQAVKGNQLLPVSLVKRKTTLAPNTQTASPRALADSLMQLARQVSRLESGQ
- n: the Hill coefficient: 1.594
